# T1: CzrA (Bacillus subtilis, UniProt O31844 1-107)
# T1 sequence: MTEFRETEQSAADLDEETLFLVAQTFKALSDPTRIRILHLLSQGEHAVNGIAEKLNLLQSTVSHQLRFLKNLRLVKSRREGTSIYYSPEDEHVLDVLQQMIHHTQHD
# B1: cadA promoter operator 28 bp (dsDNA)
# DNA 1: TTATATATGAGTATATGCTCATATATAT
# DNA 2: ATATATATGAGCATATACTCATATATAA
# Molecular target: T1, CzrA
# Assay: fluorescence anisotropy
binder,measurement,value
B1,binding result,binds

# From article PMC4227968
